Measurements reported in the supplement of paper PMC9170038.

Test system: K4 kissing-loop RNA reporter
Experiment: apparent KD of K4 kissing-loop reporter; higher = weaker reporter binding
Details: Eterna round: R107
Description: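 RNA-MaP round R107: designed RNA switches with theophylline, tryptophan, arginine or FMN aptamers are transcribed on-chip within common flanks. They are titrated with a labelled K4 kissing-loop RNA reporter in RNA-MaP buffer (100 mM Tris pH 7.5, 80 mM KCl, 4 mM MgCl2), without ligand or with the indicated ligand. Median apparent KD per design.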

[1] = input ligand: theophylline 20 uM
[2] = input ligand: tryptophan 2.4 mM
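Also: bound reporter read as fluorescence of individual clusters on recovered sequencing chips by microscopy, with normalized cluster intensities fitted with a binding model.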

Sequence	apparent KD of K4 kissing-loop reporter (input ligand: FMN 200 uM) [µM]	apparent KD of K4 kissing-loop reporter (input ligand: arginine 13.2 mM) [µM]	apparent KD of K4 kissing-loop reporter (input ligand: none) [µM]	apparent KD of K4 kissing-loop reporter [1] [µM]	apparent KD of K4 kissing-loop reporter [2] [µM]
CGCGUAUCGGCAGGAUAUGGAGUUGAGUGAUGUUCAGCAAUGGGUCAUCAUCUUUAUGACAAUCCACCAGAAGGGCCGAUACGCG	0.622	0.632	1.1	0.944	0.812
UAGGAGUGAUGUUCCUAUAGCAGGUAGGAAGGAGCGCCCAUUUGGGCAGGUAGGUCGCCUACCGGCCCUAAGUUAAACCUUAGGC [Rariar]	0.0996	0.111	0.0926	0.109	0.089
GUUAUGGACCUGGAUACCAGCUGGUACAAGGUCGGUCUACAUGAGUGAUGUUCAUGUGUCAGCCCUUGGCAGCCAGCAACCGGCA [KL-XTheo-B10]	0.0903	0.0971	0.101	0.119	0.0862
AAUGCGCAGGGAAGGAGCGCCGUCCAGUGAUGUUGGAGUUAAAUACCAGUGAUGUUGGUUAGGCAGGUAGGUCGCCCUAAAGCGC [Exclusion Arginine B GF 1]	0.118	0.0799	0.0921	0.098	0.0838
GCCGUAGAUUGAAGGAGCGUUCUUACUGAGUACGGCAACCGGAAGUGAUGUUUCCAGGUGGAACAGGUAGGUCGCAAUCUACGGC	0.102	0.0874	0.105	0.088	0.0939
AGAACUGUCUGAGAUACCAGCUAAGGAGUGAUGUUCCUAAGUCCACGAAAGUGGACUCAUAGCCCUUGGCAGCUCAGACAGUUCA [#24 K4 Theophylline B Same State]	1.15	0.675	0.815	0.565	0.963
AGUGAUGUUGUGUUAUGUUAGGGAAGUGAUCGAGGACCGGUACGGCCGCCACUCGAGUGAUGAGUGAGUGAUGUUUGUUUAGGGA [yytmullin]	1.03	0.67	1.61	1.07	0.59
CAUACGCAUGGAGGAUAUGAGAUUACUCAUAUUAUUUAAUAUUCUCAGUGAUGUUGAGAUAUAAACUCAGAAGGCCAUGUGUAUG [Ex FMN B 1]	0.184	0.152	0.143	0.166	0.153
GAAAGGAGUGAUGUUCCUGAUAAUUUUAUGAAGGAUAUUCGAUGUGGAAGAAGGUCAUGCAGGCAGCAAGGUUGCGAUCAUAUCA [theeternabot_exclusion_KL_FMN_A_40]	0.131	0.158	0.143	0.185	0.128
AGAGUACGAAAGUACUCCUCUACACACUGACGAGGACCGGUACGGCCGCCACUCGAGUUGAGUGAUGUUCGACAGUGUGUAGAGA [Omei KL Tryp A SS C v1]	0.12	0.0223	0.0256	0.163	0.783
GUACGGCGGGCGGCCGCCACUGGUAUACGAGUGAUGUUCGGAUAUACGUGAUGUAUGGUAAUUAACAGGACCGGGUCAGGGCCGG [whbob_SS_Tryp_B_t23]	0.115	0.158	0.229	0.147	0.119
UGAUACCAGACUGAUACCAGCGAGUGAUGUUUGCUGAAAUCAGGGUCAAAGACCCUGUCUCGCCCUUGGCAGCAGUCUGGUAUCU [TheoBX 21 #SwitchBubble #StaticStem]	0.735	0.601	0.754	0.223	0.688
UUUUGGUUCUGAGGAUAUUCGAAGAAAUAUAGUGAUGUUAUAUAAGGAGGAGGAUGUAGGGAGGAAGGAGAAGGCAGAAGAGGAG [ExFMNB.J]	1.04	0.915	0.88	0.377	0.48
AAGGCCACGAGAAGGAGCGUGUUGUGGAGUGAUGUUCCACUGUAGACCUAAGGUCUACAGGCACAGGUAGGUCGCUCGUGGUCAA [Omei KL Arginine B SS A v6]	0.131	0.11	0.145	0.131	0.127
AGUCCGCUCCAAGGAUAUAGUCCGGCUGCGCGUCAGUGAUGUUGAAGAAGUAUCGCGUCUCUAUAGCUAGAAGGUGGCGCAAUUG [theeternabot_sameState_KL_FMN_B_20]	0.715	0.471	0.989	0.696	0.782
UGAUAGGACAGAAGGAGCGGAGGUCGUCAAAGACGACCAAUACGUUAAAUAGGAGUGAUGUUCCAGGUAGGUCGCUGUCCUAUCU [ArgBX 30 #SwitchBubble #StaticStem]	0.123	0.119	0.123	0.129	0.106
UCACGAGUGAUGUUCGUCGCAAUCACCGAAGGAGCGGGCGAAAGCCCAGGUAGGUCGCGGUAGAAUAAUGAUUUUAUUCGAUUGC [Same State Arginine A GF 26]	0.786	0.602	0.756	0.613	0.568
AAACCCAGUGAUGUUGGGAAUCAGUUGAGGGAGGAUAUUGGUAAUACAAGAAGGCCCGGCUGCGGGUGAUGUUCGCAUUAGGGCC [Exclusion FMN A GF17]	0.16	0.157	0.152	0.154	0.14
GAAUAAUAACAUGAGUGAUGUUCAUGUAAACGAGGACCGGUACGGCCGCCACUCGAACCUCAUGUAAGCCGUACCAAUAACAAUA [KL-XTryp-A4 #analogue]	0.115	0.12	0.112	0.116	0.12
UGUCAUUGGUCGGCCGCCACUUCGUGUGGAGUGAUGUUUUGUAGGUUGUGUUGAAAGGUAUGGUGAAGGACCGGGACCGAUGACU [FiskerMod 20 - Jieux - Same State - Tryptophan B]	0.651	0.384	0.496	1.08	0.525
AAUAUAGUGAUGUUAUAUAAGAAGGAGUUACGAGGACCGGUACGGCCGCCACUCGAAACGAGUGAGGAUUUGGGAGAUUGGGUCC [SSTryptA.K]	0.3	0.366	0.43	0.384	0.299
CACGGAGUGAUGUUCCGACCGAGGAACGAUACCAGACAAGUAUACGUCCCUUGGCAGCGUUUCUUAUAUAGUCAACGUUACCGUA [Theo A Ex t3]	0.395	0.469	0.507	0.537	0.405

Sequence	apparent KD of K4 kissing-loop reporter (input ligand: FMN 200 uM) [µM]	apparent KD of K4 kissing-loop reporter (input ligand: arginine 13.2 mM) [µM]	apparent KD of K4 kissing-loop reporter (input ligand: none) [µM]	apparent KD of K4 kissing-loop reporter [1] [µM]	apparent KD of K4 kissing-loop reporter [2] [µM]
AGGACGUGAGAAGAUACCAGAGAAUAAUGCAGUGAUGUUGCUAAAUAUAAUUUAAUAUAACUCCCUUGGCAGCUUAAGUUAGUCU [Theophylline b same state]	0.0752	0.12	0.0987	0.115	0.0739
AGAACUGUCUGGGAUACCAGCCGAGGAGUGAUGUUCCGGCUCGACGAAACGUCGAGCCACGGCCCUUGGCAGCUCAGACAGUUCA [#21 K4 Theophylline B Same State]	0.674	0.332	1.05	1.25	0.759
GGAGGCUAUGCAGGAUAUAGUCGGUUGAGUGAUGUUUAACGACUAAACCUUCUAAGUCACAGCCCGCUAGAAGGGCAUAGCCUCC	0.427	0.225	0.258	0.229	0.266
GGAGGGAUCUCGGCCGCCACUCGUAAGAAAUGGGCCUCAGGGAUAUAGUGAUGUUAUGUAAAGAAGAGGACCGGGAGAAAGAAGG [ExTryptoB.Dd]	0.222	0.208	0.247	0.306	0.209
UUGUUUGGUUGAGAGGUUGGGCGAGAUGAUACCAGUAGAGAAGAGUACCCUUGGCAGCAUAGGAAAGAUAUAGUGAUGUUGUAUA [SSTheophA.Q]	0.354	0.313	0.357	0.165	0.309
GGUAGUGCUAGCGAUACCAGUCAUAUCGCUCUGGAGUGAUGUUCCGGAACGUGCGGAGAAGACCCUUGGCAGCGCUUGACGGUGU [Exclusion Theophylline B GF5]	0.218	0.234	0.318	0.251	0.298
UACUUUAAUUUAUAACUAUCUUUAUUUUGUCAGGAUAUCGUAUAGUCGAGAAGGGACUCUAUCAAGUGAUGUUUGAUAUAUCGUU [JR_SSFMNA_Sub025]	0.14	0.155	0.131	0.147	0.112
UGUAAGCGCGUAGAUACCAGCAGACGAGUGAUGUUCAAGAGAUUAAGGAAAAGAAAGUAAUGCCCUUGGCAGCUAAUCAUAAGCG [whbob_Ex_Theo_B_sa93]	0.384	0.312	0.446	0.331	0.363
CGAGUGAUGUUCGUUUAUUACUCUGUUUGACAGGAUAUGCGGAAACGCAGAAGGGUCACCUUUGAGUUAGACGGAGUUAUUUUUU [Ex FMN A 22]	0.539	0.359	0.407	0.355	0.323
CGAGUCAAUUCAGAUACCAGCCAAUUAAAGUCGAGUGAUGUUCGACAAUGAACAUCCAAAGGCCCUUGGCAGCUGAAUUGGGAAC [Same State Theophylline B GF 18]	0.144	0.0873	0.114	0.228	0.0834
UUGAGUGAUGUUCAAUUAAUGUGCAACGAUACCAGCUCAUAUGCUAGCCCUUGGCAGCGUGGUAACGUAAUUUUAUCAAAUGAUA [theeternabot_exclusion_KL_Theo_A_39]	0.232	0.199	0.198	0.205	0.145
GCCGUACGCAUGGAUACCAGCAGAACUGCCCUCCCAGUGAUGUUGGGAGGAUCUUUCCUUUGCCCUUGGCAGCCAUGCGUACGGC	0.126	0.112	0.124	0.0848	0.117
GUCUCAAAAGAGGCAAGCACUAACGAGGACAAGGAUAUCAUCUCAAUGAGAAGGUGUCCUCGUCCUUAGUGAUGUUAAGGAGUGC [Omei KL FMN A SS E v5]	0.348	0.226	0.211	0.376	0.356
AAACUUGCAGUGAUGUUGCAAGUAGGUGAUACCAGCAUCGAAAGAUGCCCUUGGCAGCACCAACACUGCAAGUAAGUAUCACCAA [(H1)-(H2)-(T1)-(T2)-(H)'-(T)'_Design1]	0.116	0.138	0.128	0.161	0.111
CCAUUCUUUUACGAUACCAGUCUAAUAUAUUGAAUCAAAACCCUCGCCGAGUGAUGUUCGGACCCUUGGCAGCGUCUGCGAGAGG [xwxxtkmullin]	0.629	0.542	0.602	0.549	0.498
GUCCCGAGUGAUGUUCGGGUCGUUUGGGAAGGAGCGCCCGGAAGGGCAGGUAGGUCGCCCGGACCCUGCAGGUAACUGUUGGGCC [#2 Same State - Arginine A Attempt #19 (HarryS)]	0.206	0.154	0.21	0.215	0.194
GGUAGCAUGGCGGCCGCCACUCGCAUCACAGGCCAUUAACCGCCCUCGUAAAGUGAUGUUUUACAGAGGACCGGGCCAUGCUACC	0.331	0.257	0.297	0.323	0.195
AGGCCACACAGCGAGUGAUGUUUGCGUUAUCGAGGACCGGUACGGCCGCCACUCGGCCUUUAGCGCCUUACCAAUUAGGUGUUGC [theeternabot_sameState_KL_Trp_A_46]	0.453	0.43	0.731	0.556	0.647
AACGUUUUGAGAAGGAGCGCGUUCAGCAGUGAUGUUGCUUUACUUCAAUUUCUAGAUAAUUCGCAGGUAGGUCGCUCAAUACGUA [JR_Nu_ExcArginiB_Sub023]	0.503	0.511	0.615	0.706	0.527
GAAACGUUGCGGACUAUCGCAUAAAGUCACCGAGGACCGGUACGGCCGCCACUCGCCAGUGAUGUUGGCGUGUUUGCGCGCUGUG [Titebebi]	0.104	0.094	0.0954	0.101	0.178
UCCUGCAAUCGCCCACGAAAGUGGAUCGAUACCAGAGUCGAAAGACUCCCUUGGCAGCGAGUGAUGUUCGAAGCAGGUAAAUAAA	0.771	0.612	0.765	0.605	0.637
